Measurements published in publication PMC6345753, “Curcumin inhibits the TGF-β1-dependent differentiation of lung fibroblasts via PPARγ-driven upregulation of cathepsins B and L”.

Key:
Conditions in all cases: protein: recombinant;recombinant; tags: ;; copies: 1;1; blunt
[1] = biological target: T1, PPARγ;RXRα (human;human, UniProt P37231;P19793 1-505;1-462, |); test: EMSA; labeled mutant probe; 4 fmol labeled DNA, 3.7 pmol PPARγ, 3.9 pmol RXRα in 20 µl; 20 ng poly(dI.dC), 2.5% glycerol, 0.05% NP-40, 5 mM MgCl2; on ice 20 min; 4% native gel, 1x TBE, 4 °C; pH and salt not given
[2] = biological target: T1, PPARγ;RXRα; test: EMSA; two shifted complexes; anti-PPARγ supershift; 4 fmol labeled DNA, 3.7 pmol PPARγ, 3.9 pmol RXRα in 20 µl; 20 ng poly(dI.dC), 2.5% glycerol, 0.05% NP-40, 5 mM MgCl2; on ice 20 min; 4% native gel, 1x TBE, 4 °C; pH and salt not given
[3] = biological target: T1, PPARγ;RXRα; test: EMSA; positive control; anti-PPARγ supershift; 4 fmol labeled DNA, 3.7 pmol PPARγ, 3.9 pmol RXRα in 20 µl; 20 ng poly(dI.dC), 2.5% glycerol, 0.05% NP-40, 5 mM MgCl2; on ice 20 min; 4% native gel, 1x TBE, 4 °C; pH and salt not given

Binder	binding result [1]	binding result [2]	other results
CAT B-PPREmt (dsDNA) DNA 1: TCTCCTGATGTAGGATACTCCTGCCTCG DNA 2: CGAGGCAGGAGTATCCTACATCAGGAGA	no binding	–	–
CAT L-PPRE (dsDNA) DNA 1: TTATGGGGTAAAGGCAGAGGTAATTATT DNA 2: AATAATTACCTCTGCCTTTACCCCATAA	–	binds	–
consensus PPRE (dsDNA) DNA 1: CAAAACTAGGTCAAAGGTCA DNA 2: TGACCTTTGACCTAGTTTTG	–	–	binding result [3]: binds
CAT L-PPREmt (dsDNA) DNA 1: TTATGCGGTACCCGCTTCGGTAATTATT DNA 2: AATAATTACCGAAGCGGGTACCGCATAA	no binding	–	–
CAT B-PPRE (dsDNA) DNA 1: TCTCCTGACCTGTGATCCGCCCGCCTCG DNA 2: CGAGGCGGGCGGATCACAGGTCAGGAGA	–	binds	–
